One series concerns the target mouse DEC205 (mouse) (UniProt Q60767). Kind of series: cell-based or functional assay.
Series [1] deals with DEC205 (CD205, LY75), mouse, surface-expressed (Mus musculus, UniProt Q60767 Q60767:28-1723). Put plainly: flow; apparent; A20.Kb/mDEC205 cells; RPMI + 1 mg/mL ssDNA, 37 C, 15 min; one-site fit. The following applies: tags: full-length, stably expressed on CHO (CHO/mDEC205) or A20.Kb/mDEC205 cells; label: Alexa Fluor 488 (5'); Mfold-predicted stem-loop with conserved UUCAUAA. On the procedure:
The minimized aptamer, min.2 (FIG. 3a), was chemically synthesized bearing a 3′ inverted dT for added serum stability and a 5′ thiol to facilitate subsequent chemical conjugations. When labeled with Alexa Fluor 488, this chemically synthesized aptamer performed as well as constructs produced by transcription (data not shown). Direct labeling of min.2 also allowed us to measure the apparent dissociation constant of this aptamer for cell-surface mDEC205 on A20 cells (23±6 nM; FIG. 3b). The specificity of Clone 1 and high affinity of its minimized form, min.2, constitute a promising basis for using this aptamer for targeted antigen delivery.
mDEC205 Cell Surface Binding Assay: A20.Kb cells or A20.Kb.mDEC205 cells which are engineered to express higher amounts of mDEC205 were washed with RPMI, resuspended at 1×10⁵ cells in 100 μL RPMI supplemented with 1 mg/mL ssDNA, and stored on ice while Alexa Fluor 488-conjugated min.2 and Alexa Fluor 488-conjugated cntrl.36 were prepared as described previously. After addition of refolded RNA to cells, the RNA-cell mixture was incubated for 15 minutes at 37° C., washed with and resuspended in flow cytometry buffer, and analyzed by flow cytometry. […]

A value given as a limit tells only on which side of the number the result lay.

mouse DEC205 (mouse), sequence (Q60767 28-1723): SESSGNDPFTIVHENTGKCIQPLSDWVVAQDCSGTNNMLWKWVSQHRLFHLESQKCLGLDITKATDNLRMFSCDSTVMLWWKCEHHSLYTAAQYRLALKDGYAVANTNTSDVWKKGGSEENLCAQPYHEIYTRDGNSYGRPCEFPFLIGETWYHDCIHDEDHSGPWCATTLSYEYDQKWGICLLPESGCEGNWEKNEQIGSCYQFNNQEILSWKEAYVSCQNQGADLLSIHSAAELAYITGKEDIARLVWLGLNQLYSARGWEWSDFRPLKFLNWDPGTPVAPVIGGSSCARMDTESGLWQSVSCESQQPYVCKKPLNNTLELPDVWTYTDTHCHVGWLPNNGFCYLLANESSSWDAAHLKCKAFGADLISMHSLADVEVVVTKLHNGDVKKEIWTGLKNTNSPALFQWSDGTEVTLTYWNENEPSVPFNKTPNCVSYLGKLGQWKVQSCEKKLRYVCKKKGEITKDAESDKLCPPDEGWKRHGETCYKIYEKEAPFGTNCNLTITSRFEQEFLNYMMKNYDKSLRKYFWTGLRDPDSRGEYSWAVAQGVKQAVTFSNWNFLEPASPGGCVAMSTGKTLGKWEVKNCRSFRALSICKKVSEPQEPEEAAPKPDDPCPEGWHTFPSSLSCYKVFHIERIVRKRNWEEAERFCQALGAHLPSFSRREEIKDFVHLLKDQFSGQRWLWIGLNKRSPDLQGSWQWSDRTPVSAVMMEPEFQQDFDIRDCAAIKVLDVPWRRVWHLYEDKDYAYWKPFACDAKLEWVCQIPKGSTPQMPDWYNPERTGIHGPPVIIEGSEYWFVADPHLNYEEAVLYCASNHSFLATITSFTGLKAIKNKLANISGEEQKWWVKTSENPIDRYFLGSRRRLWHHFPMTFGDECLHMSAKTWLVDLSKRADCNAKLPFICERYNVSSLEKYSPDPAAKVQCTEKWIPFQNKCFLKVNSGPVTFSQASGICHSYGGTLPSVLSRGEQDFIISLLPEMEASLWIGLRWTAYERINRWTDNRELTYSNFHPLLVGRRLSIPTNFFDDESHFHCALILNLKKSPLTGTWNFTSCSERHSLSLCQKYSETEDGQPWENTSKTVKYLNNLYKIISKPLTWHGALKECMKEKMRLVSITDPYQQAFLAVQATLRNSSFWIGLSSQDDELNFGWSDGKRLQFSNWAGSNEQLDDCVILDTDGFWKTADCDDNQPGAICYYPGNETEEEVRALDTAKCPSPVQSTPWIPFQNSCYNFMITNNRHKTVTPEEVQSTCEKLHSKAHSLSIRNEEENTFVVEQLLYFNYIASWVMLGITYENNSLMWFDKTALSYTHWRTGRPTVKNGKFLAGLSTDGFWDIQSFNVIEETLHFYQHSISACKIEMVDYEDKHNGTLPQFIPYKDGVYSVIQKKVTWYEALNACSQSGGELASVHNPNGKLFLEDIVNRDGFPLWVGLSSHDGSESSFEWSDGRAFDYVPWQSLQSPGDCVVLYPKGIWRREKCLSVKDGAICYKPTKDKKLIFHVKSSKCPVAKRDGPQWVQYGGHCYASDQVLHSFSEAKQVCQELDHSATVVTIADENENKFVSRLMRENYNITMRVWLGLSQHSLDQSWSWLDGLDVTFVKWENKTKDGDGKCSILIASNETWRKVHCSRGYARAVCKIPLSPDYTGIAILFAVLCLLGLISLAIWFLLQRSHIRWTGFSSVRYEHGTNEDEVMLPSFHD
DEC205 (CD205, LY75), mouse, surface-expressed, sequence (Q60767 28-1723, one chain of several): as the sequence (Q60767 28-1723) above

In the series with mouse DEC205 (mouse), “NLDC145:OVA, recombinant fusion of OVA and anti-mDEC205 antibody clone NLDC145” returned an OT-I cell proliferation (CFSE dilution) after two days with antigen-treated CD11c+ splenocytes above 80%.

B1: min.2 (ssRNA)
RNA: GGGAGGUGUGUUAGCACACGAUUCAUAAUCAGCUACCCUCCC
modifications: 2'-F pyrimidines; 3' idT; 5' thiol C6
On to B1, for which the Kd in series [1] was 23 nM.

(Values after patent publication US20150191730A1, “APTAMER-TARGETTED ANTIGEN DELIVERY” (ALBERT EINSTEIN COLLEGE OF MEDICINE OF YESHIVA UNIVERSITY, published 2015).)
